Experimental data as given in the supplement of paper PMC7125110.
± gives the standard error. Variants at the floor of the assay were thinned out.

B1: glmS ribozyme (parent)
chain: AUAAAAGCGCCAGAACUACAGAAAUGUAGUUGACGAGGAGGAGGUUUAUCGAAUUUUCGGCGGAUGCCUCCAAA

Columns and labels:
Conditions in all cases: with glucosamine-6-phosphate
glucosamine-6-phosphate [1] = variants of: B1; experiment: self-cleavage kobs at 40 uM GlcN6P; higher = faster cleavage; RNA array
Outline: (§1)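 On sequenced MiSeq chips, barcoded ribozyme variants were made in situ by E. coli RNA polymerase and followed at 37 °C through a hybridised Cy3 probe. Glucosamine-6-phosphate was flowed in at 40 μM to 10 mM in HEPES/KCl/Mg(OAc)2 buffer. Exponential fits to normalised per-tile medians gave kobs, and weighted Michaelis–Menten fits gave kcat and KM.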

glucosamine-6-phosphate [2] = variants of: B1; experiment: self-cleavage kobs at 160 uM GlcN6P; higher = faster cleavage; RNA array
Outline: as §1

glucosamine-6-phosphate [3] = variants of: B1; experiment: self-cleavage kobs at 640 uM GlcN6P; higher = faster cleavage; RNA array
Outline: as §1

glucosamine-6-phosphate [4] = variants of: B1; experiment: self-cleavage kobs at 2500 uM GlcN6P; higher = faster cleavage; RNA array
Outline: as §1

glucosamine-6-phosphate [5] = variants of: B1; experiment: self-cleavage kobs at 10000 uM GlcN6P; higher = faster cleavage; RNA array
Outline: as §1

Row | Variant | self-cleavage kobs at 40 uM GlcN6P (glucosamine-6-phosphate [1]) | self-cleavage kobs at 160 uM GlcN6P (glucosamine-6-phosphate [2]) | self-cleavage kobs at 640 uM GlcN6P (glucosamine-6-phosphate [3]) | self-cleavage kobs at 2500 uM GlcN6P (glucosamine-6-phosphate [4]) | self-cleavage kobs at 10000 uM GlcN6P (glucosamine-6-phosphate [5])
1 | AUAAAAGCGCCAGGAUUACAGAAAUGUAGUUGACGAGGAGGAGGGUUAUCGAAUUUUCGGCGGAUGUCUCCAAA [A14G C16U U45G C67U] | 0.00026 ± 6.6e-05 s⁻¹ | 0.000132 ± 3e-05 s⁻¹ | 0.00248 ± 0.0012 s⁻¹ | 0.00988 ± 0.0035 s⁻¹ | –
2 | AUAAAAGCGCCAGGAUUACAGAAAUGUAGUUGACGAGGAGGAGGUUUAUCGAAUUUUCGGCGGAUGCCUCCAAA [A14G C16U] | 0.00189 ± 0.00023 s⁻¹ | 0.0032 ± 0.0007 s⁻¹ | 0.00488 ± 0.00082 s⁻¹ | 0.00522 ± 0.0012 s⁻¹ | 0.0726 ± 0.02 s⁻¹
3 | AUAAAAGCGCCAGGACUACAGAAAUGUAUUUGAUGAGGAGGAGGUUUAUCGAAUUUUCGGCGGAUGCCUCCAAA [A14G G29U C34U] | < 1e-05 s⁻¹ | – | – | – | –
4 | AUAAAAGCGCCAGGGCUACAGAAAUGUAGUUGGCGAGGAUGAGGUUUAUCGAAUUUUCGGCGGAUGCCUCCAAA [A14G A15G A33G G40U] | < 1e-05 s⁻¹ | – | < 1e-05 s⁻¹ | – | < 1e-05 s⁻¹
5 | AUAAAAGCGCCAGCACUACAGAAAUGUAGUGGACGAGGUGGAGGUUUAUCGAAUUUUCGGCGGAUGCCUCCAAA [A14C U31G A39U] | 0.000119 ± 2.4e-05 s⁻¹ | – | 0.0016 ± 0.00039 s⁻¹ | – | 0.0112 ± 0.003 s⁻¹
6 | AUAAAAGCGCCAGGACUACAGAAAUGUAGUUGACGAGGAGGAGGUUUAUCGGAUUUUCGGCGGAUGCCUCCAAA [A14G A52G] | 9.65e-05 ± 1.7e-05 s⁻¹ | 0.000152 ± 4e-05 s⁻¹ | 0.00106 ± 0.00018 s⁻¹ | 0.00234 ± 0.00051 s⁻¹ | 0.00467 ± 0.001 s⁻¹
7 | AUAAAAGCGCCAGGAUUACAGAAAUGUAGUUGACGAGGAGUAGGUUUAUCGAAUUUUCGGCGGAUGCCUCCAAA [A14G C16U G41U] | 0.000207 ± 7.3e-05 s⁻¹ | – | – | – | 0.00243 ± 0.00096 s⁻¹
8 | AUAAAAGCGCCAGGUCUACAGAAAUGUAGUUGACGAGGAGGAGGUUUAUCGAAUUUUCGGCGGAUGGCUCCAAA [A14G A15U C67G] | 5.43e-05 ± 1.3e-05 s⁻¹ | – | – | – | 0.0027 ± 0.00046 s⁻¹
9 | AUAAAAGCGCCAGGACUACAGAAAUGUAGUUGAGGAGGAGGAGGUUUAUCGAAUUUUCGGCGGAUGCCUCCAAA [A14G C34G] | < 1e-05 s⁻¹ | < 1e-05 s⁻¹ | – | – | < 1e-05 s⁻¹
10 | AUAAAAGCGCCAGGACUACAGAAAUGUAGUUGACGAGGAGGAGGUUUAUAAAAUUUUCGGCGGAUGCCUCCAAA [A14G C50A G51A] | < 1e-05 s⁻¹ | – | – | < 1e-05 s⁻¹ | –
11 | AUAAAAGCGCCAGCACUACAGAAAUGUAGUUGACGAGGAGGAGGUUUAACGAAUUUUCGGCGAAUGCCUCCAAA [A14C U49A G63A] | < 1e-05 s⁻¹ | – | – | – | –
12 | AUAAAAGCGCCAGCACUACAGAAAUGUAGUUGACGAGGAGGAGGUUUAUCGAAUGUUCGGCGGAUGCCUCCAAA [A14C U55G] | 9.05e-05 ± 2.8e-05 s⁻¹ | – | – | – | 0.00435 ± 0.0012 s⁻¹
13 | AUAAAAGCGCCAGCACUACAGAAAUGUAGUCGACGAGGUGGAGGUUUAUCGAAUUUUCGGCGGAUGCCUCCAAA [A14C U31C A39U] | 2.48e-05 ± 1.1e-05 s⁻¹ | – | – | – | 0.00132 ± 0.00031 s⁻¹
14 | AUAAAAGCGCCAGGACUACAGAAAUGUAGUUGACGUGGAGGAUGUUUAUCGAAUUUUCGGCGGAUGCCUCCAAA [A14G A36U G43U] | < 1e-05 s⁻¹ | – | – | – | < 1e-05 s⁻¹
15 | AUAAAAGCGCCAGCACUACAGAAAUGUAGGUGACGAGGAGGAGGUUUAUAGAAUUUUCGUCGUAUGCCUCCAAA [A14C U30G C50A G60U G63U] | < 1e-05 s⁻¹ | – | – | – | < 1e-05 s⁻¹
16 | AUAAAAGCGCCAGGACUACAGAAAUGUAGUUGACGAGGAGGAGGUUUAUCGAGUUUUCGGCGGAUGCCUCCAAA [A14G A53G] | 0.00182 ± 0.00029 s⁻¹ | 0.00412 ± 0.00073 s⁻¹ | 0.0226 ± 0.0043 s⁻¹ | 0.0146 ± 0.0045 s⁻¹ | 0.0452 ± 0.013 s⁻¹
17 | AUAAAAGCGCCAGGAGUACAGAAAUGUAGUUGACGAGUAGGAGGUUUAUGGAAUUUUCGGCGGAUGACUCCAAA [A14G C16G G38U C50G C67A] | 0.000102 ± 1.6e-05 s⁻¹ | – | – | – | 9.71e-05 ± 2.1e-05 s⁻¹
18 | AUAAAAGCGCCAGGACUACAGAAAUGUAGUUGACGAGGAGGAGGUUUAUGGAAUUUUCGGCGGAUGCUACGAAA [A14G C50G C68U U69A C71G] | 0.000105 ± 1.7e-05 s⁻¹ | – | – | 0.000379 ± 8.1e-05 s⁻¹ | 0.000199 ± 5.1e-05 s⁻¹
19 | AUAAAAGCGCCAGGACUACAGAAAUGUACUUGACGAGGAAGAGGUUUAUCGAAUUUUUGGCGGAUGCCUCCAAA [A14G G29C G40A C58U] | < 1e-05 s⁻¹ | – | < 1e-05 s⁻¹ | – | –
20 | AUAAAAGCGCCAGGACUACAGAAAUGUAGUUGACGAGGAGGAGGUUUAUGGAAUUUUCGGCGGAUGCCUCUAAA [A14G C50G C71U] | 0.000639 ± 0.00021 s⁻¹ | 0.000245 ± 7.3e-05 s⁻¹ | 0.00131 ± 0.00027 s⁻¹ | – | 4.82e-05 ± 2e-05 s⁻¹
21 | AUAAAAGCGCCAGGACUACAGAAAUGUAGUUGACGAGGGGAAGGUUUAUCGAAUGUUCGGCGGAUGCCCCCAUA [A14G A39G G41A U55G U69C A73U] | < 1e-05 s⁻¹ | – | – | – | –
22 | AUAAAAGCGCCAGGACUACAGAAAUGUAGUUGAAGAGGAGGAGUUUUAUCGAAUUUUCGGCGGAUGCUUCCAAA [A14G C34A G44U C68U] | < 1e-05 s⁻¹ | < 1e-05 s⁻¹ | – | – | –
23 | AUAAAAGCGCCAGGACUACAGAAAUGUAGUUGACGAGGUGGAGAUUUAUCGAAUUUUCGGCGGAUGCCUCCAAA [A14G A39U G44A] | 0.000196 ± 4.6e-05 s⁻¹ | – | – | – | 0.00841 ± 0.0018 s⁻¹
24 | AUAAAAGCGCCAGGACUACAGAAAUGUAGUUGACGAGGAGGAGGUUUAUCGAGUUUUUGGCGGACGCCUCUAAA [A14G A53G C58U U65C C71U] | < 1e-05 s⁻¹ | – | – | – | –
25 | AUAAAAGCGCCAGCACUACAGAAAUGUAGUAGACGAGGAGGAGGUUUAUCGAAAUUUCGGCGGAUGCCUCCAAA [A14C U31A U54A] | 0.000186 ± 4.9e-05 s⁻¹ | – | – | – | 0.0192 ± 0.0058 s⁻¹
26 | AUAAAAGCGCCAGGACUACAGAAAUGUAGUUGACGAGGAGGAGGUUUAUCGACUUUUCGGCGGAUGCCUCUAAA [A14G A53C C71U] | 0.000387 ± 8.7e-05 s⁻¹ | – | 0.00168 ± 0.00056 s⁻¹ | 0.00736 ± 0.003 s⁻¹ | 0.00798 ± 0.002 s⁻¹
27 | AUAAAAGCGCCAGGACUACAGAAAUGUAGUUGACGAGGUGGAGGUUUAUCGAAUUCUCGGCGGAUGCCUCCAAA [A14G A39U U56C] | 0.000144 ± 2.6e-05 s⁻¹ | – | – | – | 0.00921 ± 0.0012 s⁻¹
28 | AUAAAAGCGCCAGCACUACAGAAAUGUAGUUGACGAGGAGGAGGUUUAUCGAAUUUCCGGCGGAUGCCCCCAAA [A14C U57C U69C] | < 1e-05 s⁻¹ | – | – | – | –
29 | AUAAAAGCGCCAGGACUACAGAAAUGUAGUUGACGAGGGGGAGGUUUAUCGAAUUUUCGGCGGAUGCCUCCAAA [A14G A39G] | 0.004 ± 0.00057 s⁻¹ | 0.00304 ± 0.00096 s⁻¹ | 0.0236 ± 0.0054 s⁻¹ | – | 0.138 ± 0.052 s⁻¹
